Here are results for eight molecules from WO2015116852A1 (dated 2015).

The target in experiment [1] is T1, hIL-6R recombinant protein (human, UniProt P08887 20-358).
T1 construct: also called hlL-6R recombinant protein; human IL-6R
T1 sequence: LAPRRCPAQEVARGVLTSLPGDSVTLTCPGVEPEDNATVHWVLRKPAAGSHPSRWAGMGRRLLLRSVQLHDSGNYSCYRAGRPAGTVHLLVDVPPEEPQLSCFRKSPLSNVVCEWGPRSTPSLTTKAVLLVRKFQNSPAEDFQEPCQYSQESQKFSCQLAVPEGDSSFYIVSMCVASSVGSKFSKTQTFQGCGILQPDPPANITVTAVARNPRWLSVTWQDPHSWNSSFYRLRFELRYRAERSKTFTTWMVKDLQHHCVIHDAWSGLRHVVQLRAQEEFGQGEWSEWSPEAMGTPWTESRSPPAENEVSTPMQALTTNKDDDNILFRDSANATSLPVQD
As to the kind of experiment: competition ELISA on plate-coated hIL-6R, competitor control antibody; similar SPR experiment. (An ELISA detects its analyte on a solid surface through an enzyme-linked reagent.)

Experiment [2] has as its target T2, Recombinant monkey monomeric IL-6R protein (Macaca fascicularis, extracellular domain) (Macaca fascicularis, UniProt P08887 21-330 (human entry)).
T2 construct: also called monkey IL-6R; monkey receptor
T2 chain: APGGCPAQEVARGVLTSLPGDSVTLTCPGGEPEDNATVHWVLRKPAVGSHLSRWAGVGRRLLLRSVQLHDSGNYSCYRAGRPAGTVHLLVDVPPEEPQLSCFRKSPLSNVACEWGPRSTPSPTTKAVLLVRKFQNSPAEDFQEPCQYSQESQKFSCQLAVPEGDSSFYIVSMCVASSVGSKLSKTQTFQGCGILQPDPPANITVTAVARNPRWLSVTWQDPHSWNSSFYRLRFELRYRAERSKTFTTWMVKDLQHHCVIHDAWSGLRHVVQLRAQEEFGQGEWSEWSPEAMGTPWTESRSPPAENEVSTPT
Nature of the experiment: BIAcore, antibody captured on anti-mouse Fc, monomeric receptor injected. Background: SPR reads the build-up and loss of mass on a sensor chip optically.

For experiment [3], the target named is T3, Recombinant human monomeric IL-6R protein (human, UniProt P08887 20-358).
T3 construct: also called monomeric hIL-6R; human receptor
T3 sequence: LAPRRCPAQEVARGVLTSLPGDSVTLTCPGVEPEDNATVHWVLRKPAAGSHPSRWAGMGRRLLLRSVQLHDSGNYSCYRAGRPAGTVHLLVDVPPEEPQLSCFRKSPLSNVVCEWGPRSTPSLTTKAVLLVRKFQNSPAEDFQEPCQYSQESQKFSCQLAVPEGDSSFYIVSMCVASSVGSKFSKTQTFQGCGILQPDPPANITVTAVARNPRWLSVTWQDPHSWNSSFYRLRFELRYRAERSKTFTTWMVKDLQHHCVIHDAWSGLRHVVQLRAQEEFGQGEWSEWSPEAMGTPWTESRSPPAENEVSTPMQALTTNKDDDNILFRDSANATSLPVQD
The description is as above.

B1: VV9A6-11 (antibody, V domains shown)
VH: QVQLVQSGAEVKKPGASVKVSCKASGYTFTSYGISWVRQAPGQGLEWMGWISAYNDDTNYAQKFQGRVTMTTDTSTSTAYMELRSLRSDDTAVYYCAREAQLVLYYYYGMDVWGQGTTVTVSS
VL: EIVLTQSPATLSLSPGERATLSCRASQSVSSFLAWNQQKPGQAPRLLIYDASNRATGIPARFSGSGSGTDFTLTISSLEPEDFAVYYCQQRSNWPYIFGQGTKLEIK
notes: also called W9A6
Consider B1, for which, in experiment [1], the binding result is “binds”.

B2: VV3D8-4 (antibody, V domains shown)
VH: EVQLVESGGGLVQPGRSLRLSCAASGFTFDDYALHWVRQAPGKGLEWVSGISWNSGRIGYADSVKGRFTISRDNAKNSLFLQMNSLRAEDTALYYCAKGRDAFDIWGQGTLVTVSS
VL: DIQMTQSPSSVSASVGDRVTITCRASQGISSWLAWYQQKPGKAPKLLIYAASSLQSGVPSRFSGSGSGTDFTLTISSLQPEDFATYYCQQANSFPYTFGQGTKLEIK
notes: also called W3D8
Take B2: the binding result in experiment [1] was “binds”.

B3: VV6A9-5 (antibody, V domains shown)
VH: EVQLVESGGGLVQPGRSLRLSCAASGFTFDDYALHWVRQAPGKGLEWVSGVSWNGGRIGYADSVKGRFTISRDNAKNSLFLQMNSLRVEDTALYYCAKGRDAFDIWGQGTLVTVSS
VL: DIQMTQSPSSVSASVGDRVTITCRASQGISSWLAWYQQKPGKAPKLLIYAASSLQSGVPSRFSGSGSGTDFTLTISSLQPEDFATYYCQHAYSFPYTFGQGTKLEIK
notes: also called W6A9-5
On to B3, for which the binding result in experiment [2] and in experiment [1] was “binds” throughout.

B4: VQ8F11-21 (antibody, V domains shown)
VH: EVQLVESGGGLVQPGRSLRLSCAASRFTFDDYAMHWVRQAPGKGLEWVSGISWNSGRIGYADSVKGRFTISRDNAENSLFLQMNGLRAEDTALYYCAKGRDSFDIWGQGTMVTVSS
VL: DIQMTQSPSSVSASVGDRVTITCRASQGISSWLAWYQQKPGKAPKLLIYGASSLESGVPSRFSGSGSGTDFTLTISSLQPEDFASYYCQQANSFPYTFGQGTKLEIK
notes: also called mAb1; sarilumab
B4: the binding result in experiment [2] and in experiment [1] was “binds” each time.

B5: VV1G4-7 (antibody, V domains shown)
VH: QVQLVQSGAEVKEPGASVKVSCKASGYTFTSYDIIWVRQATGQGLEWMGWMNPNSGNTGYTQNLQGRVTLTRNTSITTVYMELSSLSSEDTAVYYCARDYSSHYYGLDVWGQGTTVTVSS
VL: DIQLTQSPSFLSTSIGDRVTITCWASQDISNYLAWYQQKPGKAPKLLIFVASTLQSGVPSRFSGSGSGTEFTLTISSLQPEDFATYYCQQFNSYPLTFGGGTKVEIK
notes: also called W1 G4; W1 G4-7
Take B5: the binding result in experiment [2] is given as “no binding (tested: 1.25 - 40 nM)”. The Kd in experiment [3] turned out to be 0.241 nM.

B6: VV6F12-11 (antibody, V domains shown)
VH: QVQLVQSGAEVKEPGASVKISCKASGYTFTSYDIIWVRQATGQGLEWMGWMNPNSGDRGYTQNLQGRVTLTRDTSISTVYMELSSLRSEDTAVYYCARDYSNHYYGLDVWGQGTTVTVSS
VL: DIQLTQSPSFLSASVGDRVTITCWASQDISNYLAWYQQKPGKAPKLLIFVASTLQSGVPSRFSGSGSGTEFTLTISSLQPEDFATYYCQQFNSYPLTFGGGTKVEIR
Regarding B6, in experiment [1], the binding result was “binds”.

B7: VV6C10-3 (antibody, V domains shown)
VH: QVQLVQSGAEVKKPGASVKVSCKASGFNFFHYGITWVRQAPGQGLEWMGWISTYNGDTIYAQKVQGRVTMTTDTATSTAYMELRSLRSDDTAVYYCARSEQQVDYYFYGMDVWGQGTTVTVSS
VL: EIVLTQSPATLSLSPGERATLSCRASQSVSSYLAWYQQKPGQAPRLLIYDASNRATGIPARFSGSGSGTDFTLTISSLEPEDFAFYYCQQRNNRPPFTFGPGTKVDVR
notes: also called W6C10-3
For the molecule B7, the binding result in experiment [1] was “binds”.

B8: VQ8A9-6 (antibody, V domains shown)
VH: EVQLVESGGNLVQPGRSLRLSCAASGFIFDDYAMHWVRQAPGKGLEWVSGISWNSGSIGYADSVKGRFTISRDNAKNSLYLQMNSLRAEDTALYYCAKDGGSSWLPFVYYYGMDVWGQGTTVTVSS
VL: EIVMTQSPATLSVSPGERATLSCRASQSISSNFAWYQQKPGQAPRLLIYGASTRATGIPARFSGSGSGTDFTLTISSLQSEDFAVYYCQQYSSWPPYTFGQGTKLEIK
Regarding B8, the binding result in experiment [2] and in experiment [1] was “binds” each time.

By Kd is commonly meant a measure of binding affinity in units of concentration.
